In paper doi:10.64898/2025.12.10.693482, “Mechanism of NanR transcriptional activation of sialic acid metabolism in Streptococcus pneumoniae” (bioRxiv, 2025):
Where a chain is given by its changes, count along the chain named. In names and notes the source's numbering stands. Several values for one entry are separate records, joined by “and”; a condition that tells them apart may be missing. Identical values can stand only once.

How the values were obtained:
SpNanR (NanR) = molecular target: T1, SpNanR (NanR) (Streptococcus pneumoniae, UniProt A0A4M6CQT5); test: ITC (n = […]), DSF, crystal structures (8TX9, 8V4V), sedimentation velocity; format: binding
T1 construct: gene ybbH; recombinant, full-length SpNanR
T1 sequence (A0A4M6CQT5 entry or part of it): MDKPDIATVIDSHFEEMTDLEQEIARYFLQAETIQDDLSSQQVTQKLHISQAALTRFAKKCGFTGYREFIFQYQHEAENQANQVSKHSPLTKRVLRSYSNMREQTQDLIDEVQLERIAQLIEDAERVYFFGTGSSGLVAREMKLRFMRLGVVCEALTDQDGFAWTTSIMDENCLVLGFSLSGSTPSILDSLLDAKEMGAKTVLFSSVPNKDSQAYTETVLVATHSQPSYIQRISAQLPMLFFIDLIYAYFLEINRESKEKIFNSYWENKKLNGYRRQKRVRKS

SpNanR D160A (NanR) = molecular target: T2, SpNanR D160A (NanR) (Streptococcus pneumoniae, UniProt A0A4M6CQT5, D160A); test: DSF thermal shift (comparable to wild type) and tetramer stabilization by sedimentation velocity; format: binding
T2 construct: gene ybbH; recombinant SpNanR variant
T2 sequence (A0A4M6CQT5 whole entry D160A): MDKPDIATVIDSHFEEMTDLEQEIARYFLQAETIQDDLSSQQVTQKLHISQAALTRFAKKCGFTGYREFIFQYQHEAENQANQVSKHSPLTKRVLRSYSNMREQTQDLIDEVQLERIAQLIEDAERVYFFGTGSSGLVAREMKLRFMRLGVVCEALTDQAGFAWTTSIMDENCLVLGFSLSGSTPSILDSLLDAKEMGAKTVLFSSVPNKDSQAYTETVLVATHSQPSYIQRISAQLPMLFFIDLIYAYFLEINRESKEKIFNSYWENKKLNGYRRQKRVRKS

SpNanR R56A = SpNanR R56A (Streptococcus pneumoniae, UniProt A0A4M6CQT5 1-283, R56A); test: MST; up to 5 uM protein; MST: 20 mM Tris-HCl pH 8.0, 300 mM NaCl, 0.05% Tween-20, 20 C, 20 nM FAM-DNA, overnight incubation; AUC: 50 nM FAM-DNA, 0.019-5 uM SpNanR, buffer not given in m; details: protein: recombinant; chain copies: 2; label: 5'-6-FAM on sense strand; blunt 18 bp
SpNanR T18A = SpNanR T18A (Streptococcus pneumoniae, UniProt A0A4M6CQT5 1-283, T18A); test: as above; details: protein: recombinant; chain copies: 2; label: 5'-6-FAM on sense strand; blunt 18 bp
SpNanR R67A = SpNanR R67A (Streptococcus pneumoniae, UniProt A0A4M6CQT5 1-283, R67A); test: as above; details: protein: recombinant; chain copies: 2; label: 5'-6-FAM on sense strand; blunt 18 bp
[1] = molecular target: the molecule itself; test: AUC; sedimentation velocity, SpNanR 4.3–227.7 μM, no N-acetylmannosamine-6-phosphate, 20 mM Tris-HCl pH 8.0, 300 mM NaCl, 20 °C; weight-averaged s fitted to a dimer-tetramer self-association model (Sedphat); tetramer to dimers
[2] = molecular target: the molecule itself; test: SEC-SAXS; small-angle X-ray scattering with in-line size exclusion chromatography, SpNanR without N-acetylmannosamine-6-phosphate
[3] = molecular target: the molecule itself; test: AUC; sedimentation velocity, SpNanR 0.27–153.5 μM, with 2 mM N-acetylmannosamine-6-phosphate, 20 mM Tris-HCl pH 8.0, 300 mM NaCl, 20 °C; tetramer to dimers
[4] = molecular target: the molecule itself; test: AUC; sedimentation velocity of SpNanR variants and wild type at the same concentration, without N-acetylmannosamine-6-phosphate (Supplementary Figure 14C–E)

Molecule: CC(=O)N[C@@H]1C(O)O[C@H](COP(=O)(O)O)[C@@H](O)[C@@H]1O (stereo partly shown) [manNAc-6-P, N-acetylmannosamine-6-phosphate]
- Kd (SpNanR (NanR)): 20.4 ± 6 µM
- DSF thermal shift (comparable to wild type) and tetramer stabilization by sedime (SpNanR D160A (NanR)): it still binds N-acetylmannosamine-6-phosphate and that this sufficiently stabilizes the tetrameric form

B1: nanE recognition sequence, FAM-labeled (dsDNA)
DNA 1: TCTGAAAGTACTTTTAGA
DNA 2: TCTAAAAGTACTTTCAGA
- binding result (SpNanR R56A): no binding
- binding result (SpNanR T18A): no binding
- binding result (SpNanR R67A): no binding

B2: Streptococcus pneumoniae NanR (SpNanR), wild type (natural protein, UniProt A0ACD7PT65 1-283, looked up)
chain: MDKPDIATIIDSHFEEMTDLEQEIARYFLQAETITDDLSSQQVTQKLHISQAALTRFAKKCGFTGYREFIFQYQHQAENQANQVSKHSPLTKRVLRSYSNMREQTQDLIDEIQLERIAQLIEDAERIYFFGTGSSGLVAREMKLRFMRLGVVCEALTDQDGFAWTTSIMDENCLVLGFSLSGSTPSILDSLLDAKEMGAKTVLFTSVPNKNSQTYTETVLVATHSQPSYIQRISAQLPMLFFIDLIYAYFLEINRESKEKIFNSYWENKKLNGYRRQKRVRKS
notes: NanR, RpiR family transcriptional regulator of Streptococcus pneumoniae; recombinant full-length protein; intact mass 32,611 Da; Cloned into pET30ΔSE; Exists in a dimer-tetramer equilibrium; also called SpNanR^WT
- Kd [1]: 97 µM
- stoichiometry N [2]: 4 and 2
- Kd [3]: < 0.2 µM

B3: SpNanR^R148A (natural protein)
chain: B2 chain with R148A
notes: NanR of Streptococcus pneumoniae (WP_000360349.1) with the substitution R148A; Variant of m1; source: E. coli BL21(DE3), purified
- stoichiometry N [4]: 2

B4: SpNanR^D160A (natural protein)
chain: B2 chain with D160A
notes: NanR of Streptococcus pneumoniae (WP_000360349.1) with the substitution D160A; Variant of m1; source: E. coli BL21(DE3), purified
- stoichiometry N [4]: 2
